Experimental data from the nanobody polyreactivity screen of Harvey et al. (2022).

Assay: yeast display, Sf9 membrane polyspecificity reagent, FACS + sequencing; frameworks hold sequencing errors
Summary of the method: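 Nanobodies came from a synthetic yeast display library in Saccharomyces cerevisiae BJ5465, induced with galactose for 36–48 hours and stained for 1 hour at 4 °C with 10% biotinylated, detergent-solubilized Sf9 membrane reagent. Cells were enriched on streptavidin microbeads and then FACS-sorted, with low and high (top ~1%) gates set on anti-HA fluorescence for expression and streptavidin fluorescence for reagent binding. Each polyreactivity label reflects the gate a clone came from. Genes were amplified by colony PCR, sequenced by MiSeq 2 × 250 and filtered by CDR length.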

Row | Sequence | polyreactivity (PSR sort gate)
1 | QVQLVESGGGLVQAGGSLRLSCAASGIIFYRNAMGWYRQAPGKERELVAAISSRGGNTYYADSVKGRFTISRDNEKNTVYLQMNSLKPEDTAVYYCARDSYSLSRTYDSWGQGTQVTVSS | high polyreactivity
2 | QVQLVESGGGLVQAGGSLRLSCAASGIIFYRNTMGWYRQAPGKERELVAAITSGGTTYADSVKGRFTISRDNAKNTVYLQMNSLKPEDTAVYYCATDYWYRGFEYEYWGQGTQVTVSS | high polyreactivity
3 | QVQLVESGGGLVQAGGSLRLSCAASGIIFYRNTMGWYRQAPGKEWELVAAIRRGGNTYYADSVKGRFTISRDNAKNTVYLQMNSLKPEDTAVYYCAASAGPRASYYYWGQGTQVTVSS | high polyreactivity
4 | QVQLVESGGGLVQAGGSLRLSCAASGIIFYRSVMGWYRQAPGKERELVAAITSGGSTNYADSVKGRFTISRDNAKNTVYLQMNSLKPEDTAVYYCAAVPRYRRWKYDYWGQGTQVTVSS | high polyreactivity
5 | QVQLVESGGGLVQAGGSLRLSCAASGIIFYRYAMGCYRQAPGKEREFVAAISWSGGSTTYADSVKGRFTISRDNAKNTVYLQMNSLKPEDTAVYYCNADRKYWSLWGPAYDYWGQGTQVTVSS | high polyreactivity
6 | QVQLVESGGGLVQAGGSLRLSCAASGIIFYRYAMGWYRQAPGKERELVARITYNGGRTYYADSVKGRFTISRDNAKKTVYLQMNSLKPEDSAVYYCAARGHGGYYYWGQGTQVTVSS | high polyreactivity
7 | QVQLVESGGGLVQAGGSLRLSCAASGIIFYSYVMGWYRQAPGKERELVAVISRSGGRTYYADSVKGRFTISRDNAKNTVYLQMISLKPEDTAVYYWAAALGVALNDYWGQGTQVTVSS | high polyreactivity
8 | QVQLVESGGGLVQAGGSLRLSCAASGIIFYTYAMGWYRQAPGKEREFVAGIRWSGSSTYYADSVKGRFTISRDNAKNTVYLQMNSLKPEDTAVYYCATGQPYGPLYSLGYGYWGQGTQVTVSS | high polyreactivity
9 | QVQLVESGGGLVQAGGSLRLSCAASGIIFYVYAMGWYRQAPGKERELVAAISSSGGSTNYADSVKGRFTISRDNAKNTVYLQMNSLKPEDTAVYFCAAKWRTRGHTSARGYWGQGTQVTVSS | high polyreactivity
10 | QVQLVESGGGLVQAGGSLRLSCAASGIIFYWYAMGWYRQAPGKERELVAAINSGGRTNYADSVKGRFTISRDNAKNTVYLQMNSLKPEDTAVYYCAARANPYVLKYYYWGQGTQVTVSS | high polyreactivity
11 | QVQLVESGGGLVQAGGSLRLSCAASGIIFYYNAMGWYREAPGKEREFVASISSRGGSTYYADSVKGRFTISRDNSKNTVYLQMNSVKPEDTAVYYCAAAFDWRRQRYNYWGQGTQVTVTS | high polyreactivity
12 | QVQLVESGGGLVQAGGSLRLSCAASGIIFYYNGMGWYRQAPGKERELVAAISGDGSTNYADSVKGRFTISRDNAKNTVYLQMNSLKPEDTAVYYCNADDIFRPRDDLYDYWGQGTQVTVSS | low polyreactivity
13 | QVQLVESGGGLVQAGGSLRLSCAASGIIFYYNTMGWYRQAPGKERELVAAISQRGGSTYYADSVKGRFTISRDNAKNTVYLQMNSLKPEDTAVYYCNKLRNSHGFRYDYWGQGTQVTVSS | high polyreactivity
14 | QVQLVESGGGLVQAGGSLRLSCAASGIIFYYYAMGWYRQAPGKERELVAAINWTGGDTYYADSVKGRFTISRDNAKNTVYLQMNSLKPEDTAVYYCNADSFYSYIYDYWGQGTQVTVSS | low polyreactivity
15 | QVQLVESGGGLVQAGGSLRLSCAASGIIFYYYAMGWYRQAPGKERELVAAISKSGGSTYYADSVKGRFTISRDNAKNTVYLQMNRLKPEDTAVYYCAARGPSWLSYNYWGQGTQVTVSS | high polyreactivity
16 | QVQLVESGGGLVQAGGSLRLSCAASGIIFYYYAMGWYRQAPGKERELVAAISWSGGSTYYADSVKGRFTISRDNAKNTVYLQMNSLKPEDTAVYYCAADYTGHIYYYWGQGTQVTVSS | low polyreactivity
17 | QVQLVESGGGLVQAGGSLRLSCAASGIIFYYYAMGWYRQAPGKERELVASISRSGTDTYYADSVKGRFTISRDTAKNTVYLQMNSLKPEDTAVYYCAARGYYRWAAYADWRFNYWGQGTQVTVSS | high polyreactivity
